From patent US20150160219

Molecular target: T1, Indicator molecule of Example 3 (synthetic peptide with MMP-9 sequence, HNE sequence, DNP, fluorescent label and terminal biotin via PEG)
T1 chain: GPQGIFGQGAAPVA

B1: human neutrophil elastase (HNE) (Lee biotech, 342-40) (protein)
chain: IVGGRRARPHAWPFMVSLQLRGGHFCGATLIAPNFVMSAAHCVANVNVRAVRVVLGAHNLSRREPTRQVFAVQRIFENGYDPVNLLNDIVILQLNGSATINANVQVAQLPAQGRRLGNGVQCLAMGWGLLGRNRGIASVLQELNVTVVTSLCRRSNVCTLVRGRQAGVCFGDSGSPLVCNGLIHGIASFVRGGCASGLYPDAFAPVAQFVNWIDSIIQ
B1 was tested, and the “detectable limit of the lateral flow cleavage assay” value was “approximately 62.5-125 ng/ml”.
